Experimental data taken from article PMC4031069 (Nature materials, 2014).

Target: monomeric biotinylated FN7-10 (biotin (biotinylated; site not stated))
Assay: SPR

B1: purified recombinant human αvβ6 integrin (receptor)
chain 1: FNLDVDSPAEYSGPEGSYFGFAVDFFVPSASSRMFLLVGAPKANTTQPGIVEGGQVLKCDWSSTRRCQPIEFDATGNRDYAKDDPLEFKSHQWFGASVRSKQDKILACAPLYHWRTEMKQEREPVGTCFLQDGTKTVEYAPCRSQDIDADGQGFCQGGFSIDFTKADRVLLGGPGSFYWQGQLISDQVAEIVSKYDPNVYSIKYNNQLATRTAQAIFDDSYLGYSVAVGDFNGDGIDDFVSGVPRAARTLGMVYIYDGKNMSSLYNFTGEQMAAYFGFSVAATDINGDDYADVFIGAPLFMDRGSDGKLQEVGQVSVSLQRASGDFQTTKLNGFEVFARFGSAIAPLGDLDQDGFNDIAIAAPYGGEDKKGIVYIFNGRSTGLNAVPSQILEGQWAARSMPPSFGYSMKGATDIDKNGYPDLIVGAFGVDRAILYRARPVITVNAGLEVYPSILNQDNKTCSLPGTALKVSCFNVRFCLKADGKGVLPRKLNFQVELLLDKLKQKGAIRRALFLYSRSPSHSKNMTISRGGLMQCEELIAYLRDESEFRDKLTPITIFMEYRLDYRTAADTTGLQPILNQFTPANISRQAHILLDCGEDNVCKPKLEVSVDSDQKKIYIGDDNPLTLIVKAQNQGEGAYEAELIVSIPLQADFIGVVRNNEALARLSCAFKTENQTRQVVCDLGNPMKAGTQLLAGLRFSVHQQSEMDTSVKFDLQIQSSNLFDKVSPVVSHKVDLAVLAAVEIRGVSSPDHVFLPIPNWEHKENPETEEDVGPVVQHIYELRNNGPSSFSKAMLHLQWPYKYNNNTLLYILHYDIDGPMNCTSDMEINPLRIKISSLQTTEKNDTVAGQGERDHLITKRDLALSEGDIHTLGCGVAQCLKIVCQVGRLDRGKSAILYVKSLLWTETFMNKENQNHSYSLKSSASFNVIEFPYKNLPIEDITNSTLVTTNVTWGIQPAPMPV
chain 2: GCALGGAETCEDCLLIGPQCAWCAQENFTHPSGVGERCDTPANLLAKGCQLNFIENPVSQVEILKNKPLSVGRQKNSSDIVQIAPQSLILKLRPGGAQTLQVHVRQTEDYPVDLYYLMDLSASMDDDLNTIKELGSRLSKEMSKLTSNFRLGFGSFVEKPVSPFVKTTPEEIANPCSSIPYFCLPTFGFKHILPLTNDAERFNEIVKNQKISANIDTPEGGFDAIMQAAVCKEKIGWRNDSLHLLVFVSDADSHFGMDSKLAGIVIPNDGLCHLDSKNEYSMSTVLEYPTIGQLIDKLVQNNVLLIFAVTQEQVHLYENYAKLIPGATVGLLQKDSGNILQLIISAYEELRSEVELEVLGDTEGLNLSFTAICNNGTLFQHQKKCSHMKVGDTASFSVTVNIPHCERRSRHIIIKPVGLGDALELLVSPECNCDCQKEVEVNSSKCHHGNGSFQCGVCACHPGHMGPRCECGEDMLSTDSCKEAPDHPSCSGRGDCYCGQCICHLSPYGNIYGPYCQCDNFSCVRHKGLLCGGNGDCDCGECVCRSGWTGEYCNCTTSTDSCVSEDGVLCSGRGDCVCGKCVCTNPGASGPTCERCPTCGDPCNSKRSCIECHLSAAGQAREECVDKCKLAGATISEEEDFSKDGSVSCSLQGENECLITFLITTDNEGKTIIHSINEKDCPKPPNIP
kont relative to α5β1: ~0.5 fold
